Experiment: yeast display, Sf9 membrane polyspecificity reagent, FACS + sequencing; frameworks hold sequencing errors
In short: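 Polyreactivity labels are assigned by the sorting gate from which each nanobody was recovered. The gates were low and high (top ~1%), set on anti-HA fluorescence for expression and streptavidin fluorescence for reagent binding. Before sorting, galactose-induced (36–48 hours) yeast display cells were stained for 1 hour at 4 °C with 10% biotinylated, detergent-solubilized Sf9 membrane reagent.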

QVQLVESGGGLVQAGGSLRLSCAASGSTLRAYTMGWYRQAPGKERELVATITRRGGTTYYADSVKGRFTISRDNAKNTVYLQMNSLKPEDTAVYYCAAKWYSTHRYDYWGQGTQVTVSS
polyreactivity (PSR sort gate): high polyreactivity

QVQLVESGGGLVQAGGSLRLSCAASGSTLRRYAMGWYRQAPGKERDLVAAITSRGTDTYYADSVKGRFTISRDNAKNTVYLQMNSLKPEDTAVYYCAASWVAGGHYGYDYWGQGTQVTVSS
polyreactivity (PSR sort gate): high polyreactivity

QVQLVESGGGLVQAGGSLRLSCAASGSTLRWNAMGWYRQAPGKERELVAAITYSGGSTYYADSVKGRFTISRDNAKNTVYLQMNSLKPEDTAVYYCAADSYRYRPGYGPVLYDYWGQGTQVTVSS
polyreactivity (PSR sort gate): high polyreactivity

QVQLVESGGGLVQAGGSLRLSCAASGSTLSDNAMGWYRQAPGKERELVASISWSGGTYYADSVKGRFTISRDNAKNTVYLQMNSLKPEDTAVYYCAAYIYYNYSRQYWYDYWGQGTQVTVSS
polyreactivity (PSR sort gate): low polyreactivity

QVQLVESGGGLVQAGGSLRLSCAASGSTLSFKAMGWYRQAPGKERELVAGITYSGGSTYYADSVKGRFTISRDNAKNTVYLQMNSLKPEDTAVYYCNKASGVYYGHLDYWGQGTQVTVSS
polyreactivity (PSR sort gate): low polyreactivity

QVQLVESGGGLVQAGGSLRLSCAASGSTLSFNAMGWYRQAPGKERELVAGITYSGGSTYYADSVKGRFTISRDNAKNTVYLQMNILKPEDTAVYYCNKASGVYYGHLDYWGQGTQVTVSS
polyreactivity (PSR sort gate): low polyreactivity

QVQLVESGGGLVQAGGSLRLSCAASGSTLSFNAMGWYRQAPGKERELVAGITYSGGSTYYADYVKGRFTISRDNAKNTVYLQMNSLKPEDTAVYYCNKASGVYYGHLDYWGQGTQVTVSS
polyreactivity (PSR sort gate): low polyreactivity

QVQLVESGGGLVQAGGSLRLSCAASGSTLSKNAMGWYRQAPGKERELVAAMTRRGGSTSYADSVKGRFTMSRDYAKNTVYLQMNSLKPEDTAVYYCNAVSKYDYGYWGQGTQVTVSS
polyreactivity (PSR sort gate): high polyreactivity

QVQLVESGGGLVQAGGSLRLSCAASGSTLSQNAMGWSRQAPGKEREFVADISGSGDSTYYADSVKGRITISRDNAKNTVYLQMNSLKPEDTAVYYCAAEELSHYEYWGKGTQVTVSS
polyreactivity (PSR sort gate): low polyreactivity

QVQLVESGGGLVQAGGSLRLSCAASGSTLSSNAMGWYRQAPGKVWELVAAISYRGGSTYYADSVKGRFTISRDNAKNTVYLQMNSLKPEDTAVYYCAAYLGPYVRYYYWGQGTQVTVSS
polyreactivity (PSR sort gate): high polyreactivity

QVQLVESGGGLVQAGGSLRLSCAASGSTLSYNAMGWYRQAPGKERELVAAISWSDGGTYYADSVKGRFTISRDTAKNTVFLQMNSLKPEDTAVYYCAARRGVRYSKFGYYYWGQGTQVTVSS
polyreactivity (PSR sort gate): high polyreactivity

QVQLVESGGGLVQAGGSLRLSCAASGSTLTPNAMGWYRQAPGKERELVAAISRSGGSTYYADSVKGRFTISRDNAKNTVYLQRNSLKPEDTAVYYCRGYYIGIRAYGYWGQGTQVTVSS
polyreactivity (PSR sort gate): high polyreactivity

QVQLVESGGGLVQAGGSLRLSCAASGSTLTYNAMGWYRQAPGKERELVADITS
polyreactivity (PSR sort gate): low polyreactivity

QVQLVESGGGLVQAGGSLRLSCAASGSTLTYYVMGWSRQAPGKERELVAAITDSGGGTYYADSVKGRFTISRDNAKNTVYLQMNSLKPEDTAVYYCNAYYPYGLASFYYWGQGTQVTVSS
polyreactivity (PSR sort gate): low polyreactivity

QVQLVESGGGLVQAGGSLRLSCAASGSTLVANAMGWYRQAPGKERELVAAISSGGITYYADSVKGRFTISRDNAKNTVYLQMHSLKPEDTAVYYCAARIRGTWKYGYWGQGTQVTVSS
polyreactivity (PSR sort gate): low polyreactivity

QVQLVESGGGLVQAGGSLRLSCAASGSTLVFSAMGWYRQAPGKERELVAAITRSGGSTYYADSVKGRFTITRDNAKNTVYLQMNSLKPEDTAVYYCAADERYIYERDSWGQGTQVSVSS
polyreactivity (PSR sort gate): low polyreactivity

QVQLVESGGGLVQAGGSLRLSCAASGSTLVGYVMGWYRQAPGKERELVAAITTVGSTYYADSVKGRFTISRDNAKNTVYLQMNSLKPEDTAVYYCNAVRAYVDLRTGHFRGDYWGQGTQVTVSS
polyreactivity (PSR sort gate): low polyreactivity

QVQLVESGGGLVQAGGSLRLSCAASGSTLVLNAMGWYRQAPGKERELVAAISRGGGSTSYADSVKGRFTISRDNAKNTVYLQMNSLKPEDTAVYYCNAYTYYHANHEQGFGYWGQGTQVTVSS
polyreactivity (PSR sort gate): low polyreactivity

QVQLVESGGGLVQAGGSLRLSCAASGSTLVLNAMGWYRQAPGKERELVAAITISGDTTYYADSVKGRFTISRDNAKNTVYLQMNSLKPEDTAVYYCAVDSFLVYSAVRPYDYWGQGTQVTVSS
polyreactivity (PSR sort gate): low polyreactivity

QVQLVESGGGLVQAGGSLRLSCAASGSTLVSNAMGWYIQAPGKEREFVAAINSSGSRTYYADSVKGRFTISRDNANNTVYLQMNSLKPEDTAVYYCAAGYWNDFDWGQVTQVTVSS
polyreactivity (PSR sort gate): low polyreactivity

QVQLVESGGGLVQAGGSLRLSCAASGSTLVWNAMGWYRQAPGKERELVAGITTSGGSTSYADSVKGRFTISRDNAKNTVYLQMNSLKQEDTAVYYCAVDAAIYTNKLDYWGQGTQVTVSS
polyreactivity (PSR sort gate): low polyreactivity

QVQLVESGGGLVQAGGSLRLSCAASGSTLWFNAMGWYRQAPGKERELVAAINWSGGSTYYADSVKGRFTISRDNAKNTVYLQMNSLKPEDTAVYYCAAVYQYVHYVWYDYWGQGTQVTVSS
polyreactivity (PSR sort gate): low polyreactivity

QVQLVESGGGLVQAGGSLRLSCAASGSTLWGYVMGWYRQAPGKERELVAVISKSGGSTYYADSVKGRFTISRDNANNTVYLQMNSLKPEDTAVYYCATRWPYRSDWGQGTQVTVSS
polyreactivity (PSR sort gate): high polyreactivity

QVQLVESGGGLVQAGGSLRLSCAASGSTLWRYAMGWYRQAPGKERELVAGISRGGGSTYYADSVKGRFTISRDNANKTVYLQKNSLKPEDTAVYYCAADDPLYSISTGDYWGQGTQVTVSL
polyreactivity (PSR sort gate): low polyreactivity

QVQLVESGGGLVQAGGSLRLSCAASGSTLWVYAMGSYRQAPGKERELVAAITQSTGDTHYADSVKGRFTISRDNAKNTVYLQMNSLKPEDTAVYYCAADSYLSVYDPYGYWGQGTQVTVSS
polyreactivity (PSR sort gate): low polyreactivity

QVQLVESGGGLVQAGGSLRLSCAASGSTLWYYAMGWYRQAPGKERELVADITSSGNTNYADSVKGRFTISRDNAKNTVYLQMNSLKPEDTAVYYCAADSANYQWYLSWQKDDYWGQGTQVTVSS
polyreactivity (PSR sort gate): low polyreactivity

QVQLVESGGGLVQAGGSLRLSCAASGSTLYFNAMGWYRQAPGKERELVATITSGGSTYYADSVKGRFTISRDNAKNTVYFQMNSLKPEDTAVYYCNADFGSYATNGMTPLYDYWGQGTQVTVSS
polyreactivity (PSR sort gate): high polyreactivity

QVQLVESGGGLVQAGGSLRLSCAASGSTLYKYAMGWYRQAPGKERELVATITRTDSTNYADSVKGRFTISRDNAKNTVYLQMNSLKPEDTAVYYCNRGFDWWYRYRHYDYWGQGTQVTVSS
polyreactivity (PSR sort gate): low polyreactivity

QVQLVESGGGLVQAGGSLRLSCAASGSTLYPNAMGWYRQAPGKERELVAAIRRRGGSTYYADSVKGRFTISRDNAKNTVYLQMNSLKPEDTAVYYCAAYPYKQDPTLVHYDYWGQGTQVTVSS
polyreactivity (PSR sort gate): low polyreactivity

QVQLVESGGGLVQAGGSLRLSCAASGSTLYPYDMGWYRQAPGKERELVAAIDSGGSTNYADSVKGRFTISRDNAKNTVYLQMNSLKPEDTAVYYCAADASGENDYWGQGTQVTVSS
polyreactivity (PSR sort gate): low polyreactivity

QVQLVESGGGLVQAGGSLRLSCAASGSTLYPYDMGWYRQAPGKERELVAAIDSGGSTNYADSVKGRFTISRDNAKNTVYLQMNSLKPEDTAVYYCATEILTAARDTVVYQFYLGYYYWGQGTQVTVSS
polyreactivity (PSR sort gate): low polyreactivity

QVQLVESGGGLVQAGGSLRLSCAASGSTLYQYAMGWYRQAPGKERELVAAITKSGGRTYYADSVKGRFTISRDNAKNTVYLQMNSLKPEDTAVYYCNVVRGSYSSGGDYWGQGTQVTVSA
polyreactivity (PSR sort gate): high polyreactivity

QVQLVESGGGLVQAGGSLRLSCAASGSTLYSYAMGWYRQAPGKERELVAAISIGGRTYYADSVKGRFTISRDNAKNTVYLQMNSLKPEDTAVYYCNKYYGPRTYLSAQGRSYGYWGQGTQVTVSS
polyreactivity (PSR sort gate): high polyreactivity

QVQLVESGGGLVQAGGSLRLSCAASGSTLYTYAMGWYRQAPGKERELVAAISYTGGRTYYADSVKGRFTISRDNAKNTVYLQMNSLKPEDTAVYYCAARFKSVGYDYWGQGTQVTVSS
polyreactivity (PSR sort gate): high polyreactivity

QVQLVESGGGLVQAGGSLRLSCAASGSTLYTYDMGWYRQAPGKERELVASISGSDGSTYYADSVKGRFTISRDNAKNTVYLQMNSLKPEDTAVYYCAVDSYQTGVYFYYVYWDFDLGYWGQGTQVTVSS
polyreactivity (PSR sort gate): low polyreactivity

QVQLVESGGGLVQAGGSLRLSCAASGSTLYWNAMGWYRQAPGKERELVADISSTGRTYYADSVKGRFTISRDNAKNTVYLQMNSLKPEDTAVYYCNADYFFEFDYWGQGTQVTVSS
polyreactivity (PSR sort gate): low polyreactivity

QVQLVESGGGLVQAGGSLRLSCAASGSTLYYNAMGWYRQAPGKERELVAAISWSGGSTYYADSVKGRFTISRDNAKNTVYLQMNSLKPEDTAVYYCAAELSSYYDYDYWGQGTQVTVSS
polyreactivity (PSR sort gate): low polyreactivity

QVQLVESGGGLVQAGGSLRLSCAASGSTLYYNAMGWYRQAPGKERELVAAITSGGSTSYADSVKGRFTISRDNAKNTVYLQMNSLKPEDTAVSSCAAVFYRRFDYWGQGTQVTVSS
polyreactivity (PSR sort gate): low polyreactivity

QVQLVESGGGLVQAGGSLRLSCAASGSTLYYYAMGWYRQAPGKERELVASITGSGGNTYYADSVKGRFTISRDNAKNTVYLQMNSLKPEDTAVYYCAKRHFYRHGAYGYWGQGTQVTVSS
polyreactivity (PSR sort gate): high polyreactivity

QVQLVESGGGLVQAGGSLRLSCAASGSTLYYYAMGWYRQAPGKERELVASITKSGASTYYADSVKGRFTISRDNAKNTVYLLMNSLKPEDTAVYYCAADVGAIYDNAENGYWGQGTQVTVSS
polyreactivity (PSR sort gate): low polyreactivity

QVQLVESGGGLVQAGGSLRLSCAASGSTNYPNAMGWYRQAPGKESELVARISRNGGSTYADSVKGRFTISRDNAKNTVYFQMNSLKPEDTEVYYCARSYASFSWLRTKEPYEYWGQGTQVTVSS
polyreactivity (PSR sort gate): low polyreactivity

QVQLVESGGGLVQAGGSLRLSCAASGSTRLYAMGWYRQAPGKERELVAAIRSSGSSTYYADSVKGRFTISRDNAKNTVYLQMNSLKPEDTAVYYCNADRIRKGWRYDYWGQGTQVTVSS
polyreactivity (PSR sort gate): high polyreactivity

QVQLVESGGGLVQAGGSLRLSCAASGSTSDDNTMGWYRQAPGKERELVAAITWSGGRTSYADSVKGRFTISRDNAKNTVYLQMNSLKPEDTAVYYCAADKSGRGLDYWGQGTQVTVSS
polyreactivity (PSR sort gate): low polyreactivity
